Each block holds one binder with its values, some of them ahead of it.
Tests used:
[1] = biological target: T1, recombinant human IL-1α (human, UniProt P01583 113-271); assay: cell-based or functional assay
T1 sequence: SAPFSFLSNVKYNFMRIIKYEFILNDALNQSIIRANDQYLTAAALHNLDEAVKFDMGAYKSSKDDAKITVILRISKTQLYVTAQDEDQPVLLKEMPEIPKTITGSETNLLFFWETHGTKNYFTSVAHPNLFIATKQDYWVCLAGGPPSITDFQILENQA

[2] = biological target: T1, recombinant human IL-1α; assay: SPR (Biacore 3000), saturating binding
Experimental: (§1) The association and dissociation rate constants, kon (M-1s-1) and koff (s-1) were determined under a continuous flow rate of 25 ml/minute. […] The equilibrium dissociation constant (M) of the reaction between DVD-Ig molecule and rhIL1α/β was then calculated from the kinetic rate constants by the following formula: KD=koff/kon. Aliquots of rhIL1α/β samples were also simultaneously injected over a blank reference and reaction CM surface to record and subtract any nonspecific binding background to eliminate the majority of the refractive index change and injection noise. Surfaces were regenerated with two subsequent […] injections of 10 mM Glycine (pH 1.5) at a flow rate of […]. The anti-Fc antibody immobilized surfaces were completely regenerated and retained their full capture capacity over twelve cycles. The apparent stoichiometry of the captured DVD-Ig-rhIL1α/β complex was calculated under saturating binding conditions (steady-state equilibrium) using the following formula: […]
(§2) The affinity of the two DVD-Ig binding proteins to hIL-1 as compared to the affinity of chimeric antibodies to hIL-1 was similar as indicated by the evaluation of the stoichiometry to IL-1. Both chimeric antibodies, being bivalent monospecific, bound to IL-1α and IL-1β on Biacore with a stoichiometry of 1.6 and 1.7, respectively. This is common for an IgG due to inter-molecular interference when antibodies are immobilized densely on the Biacore sense chip resulting in stoichiometry being in the range from 1.5 to 2.0.

[3] = biological target: T1, recombinant human IL-1α; assay: SPR (Biacore 3000), binder captured via goat anti-human IgG Fc
Experimental: (§3) Approximately, 5000 RU of goat anti-human IgG Fcγ fragment specific polyclonal antibody (Pierce Biotechnology Inc, Rockford, Ill.) diluted in 10 mM sodium acetate (pH 4.5) was directly immobilized across a CM5 research grade biosensor chip using a standard amine coupling kit according to manufacturer's instructions and procedures at […]. Unreacted moieties on the biosensor surface were blocked with ethanolamine. Modified carboxymethyl dextran surface in flowcell 2 and 4 was used as a reaction surface. Unmodified carboxymethyl dextran without goat anti-human IgG in flow cell 1 and 3 was used as the reference surface. For kinetic analysis, rate equations derived from the 1:1 Langmuir binding model were fitted simultaneously to association and dissociation phases of all ten injections (using global fit analysis) using the Bioevaluation 4.0.1 software. Purified DVD-Ig samples were diluted in HEPES-buffered saline for capture across goat anti-human IgG Fc specific reaction surfaces and injected over reaction matrices at a flow rate of […]. The association and dissociation rate constants, kon (M-1s-1) and koff (s-1) were determined under a continuous flow rate of 25 ml/minute. […] The equilibrium dissociation constant (M) of the reaction between DVD-Ig molecule and rhIL1α/β was then calculated from the kinetic rate constants by the following formula: KD=koff/kon. Aliquots of rhIL1α/β samples were also simultaneously injected over a blank reference and reaction CM surface to record and subtract any nonspecific binding background to eliminate the majority of the refractive index change and injection noise. Surfaces were regenerated with two subsequent […] injections of 10 mM Glycine (pH 1.5) at a flow rate of […]. The anti-Fc antibody immobilized surfaces were completely regenerated and retained their full capture capacity over twelve cycles. The apparent stoichiometry of the captured DVD-Ig-rhIL1α/β complex was calculated under saturating binding conditions (steady-state equilibrium) using the following formula: […]

[4] = biological target: T2, recombinant human IL-1β (human, UniProt P01584 117-269); assay: cell-based or functional assay
[5] = biological target: T2, recombinant human IL-1β; assay: SPR (Biacore 3000), saturating binding
Experimental: as §1, §2

[6] = biological target: T2, recombinant human IL-1β; assay: SPR (Biacore 3000), binder captured via goat anti-human IgG Fc
Experimental: as §3

[7] = biological target: T1, recombinant human IL-1α; assay: cell-based or functional assay; remark: listed apart in the source
[8] = biological target: T1, recombinant human IL-1α; assay: SPR (Biacore)
[9] = biological target: T1, recombinant human IL-1α; assay: SPR (Biacore), mAb captured via goat anti-mouse IgG
[10] = biological target: T1, recombinant human IL-1α; assay: cell-based or functional assay; remark: listed apart in the source
[11] = biological target: T3, murine IL-1β (mouse, UniProt P10749 118-269); assay: cell-based or functional assay
T3 sequence (looked up): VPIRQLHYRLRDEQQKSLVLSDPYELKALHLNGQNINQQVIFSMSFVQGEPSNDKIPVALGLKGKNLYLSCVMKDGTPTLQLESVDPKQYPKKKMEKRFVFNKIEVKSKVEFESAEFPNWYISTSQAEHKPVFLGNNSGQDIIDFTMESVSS

[12] = biological target: T4, murine IL-1α (mouse, UniProt P01582 115-270); assay: cell-based or functional assay
T4 sequence (looked up): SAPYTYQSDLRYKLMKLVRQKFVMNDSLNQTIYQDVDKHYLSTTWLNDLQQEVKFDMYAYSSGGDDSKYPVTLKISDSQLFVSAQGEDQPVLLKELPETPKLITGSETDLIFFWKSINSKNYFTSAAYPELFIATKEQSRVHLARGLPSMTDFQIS

[13] = biological target: T3, murine IL-1β; assay: affinity, method not named for this table (Biacore elsewhere)
[14] = biological target: T4, murine IL-1α; assay: as above

IC50 (M), MRC-5 bioassay (inhibition of IL-8 production) [7]: 8.9e-11 M | Kd [8]: 0.595 nM | Kd [9]: 0.578 nM | IC50 (M), MRC-5 bioassay [10]: 3.3e-10 M
B3: murine monoclonal antibody 18F4.2C8 (antibody, V domains shown)
VH: EVQLQQSGAELVKPGASVKLSCTASGLNIKDTYMHWLKQRPEQGLEWIGRIDPANGNAKYDPRFLGKATITADTSSNTAYLQLSSLTSEDTAVYYCARGDGNFHFDYWGQGTTLTVSS
VL: DIVMTQSQRFMSTSVGDRVSVTCKASQNVGTNIAWYQQKPGQSPRALIYSASYRYSGVPDRFTGSGSGTDFTLTISNVQSVDLAEYFCQQYTRYPLTFGGGTKLEIKR
notes: Murine hybridoma mAb, anti-hIL-1α

IC50 (M), in vitro potency [11]: 3.7e-10 M | Kd [13]: 0.23 nM
B5: mouse anti-mouse IL-1β monoclonal antibody 10G11 (antibody, V domains shown)
VH: EVQLQQSGPELVKPGTSVKMSCKTSGYTFTSYVMHWVKQKPGQGLEWIGYIIPYNDNTKYNEKFKGKATLTSDKSSSTAYMELSSLTSEDSAVYYCARRNEYYGSSFFDYWGQGTTLTVSS
VL: DIQMTQSPASLSASVGETVTITCRGSGILHNYLVWYQQKQGKSPQLLVYSAKILADGVPSRFSGSGSGTQYSLKINSLQPEDFGSYYCQHFWSTPFTFGSGTKLEIKR
notes: Mouse mAb from IL-1αβ double KO mice; also called anti-IL-1β (10G11)

IC50 (M), MRC-5 bioassay (inhibition of IL-8 production) [7]: 2.4e-10 M | Kd [8]: 0.354 nM | Kd [9]: 0.354 nM | IC50 (M), MRC-5 bioassay [10]: 2.4e-10 M
B6: murine monoclonal antibody 6H3.1A4.3E11 (antibody, V domains shown)
VH: QVQLQQPGAELVRPGASVKLSCKASGYTFTTYWMNWVKQRPEQGLEWIGRIDPYDSETLYSQKFKDTAILTVDKSSSTAYMQLSSLTSEDSAVYYCARYGFDYWGQGTTLTVSS
VL: QIVLTQSPALMSASPGEKVTMTCSASSSVNYMYWYQQKPRSSPKPWIYLTSNLASGVPARFSGSGSGTSYSLTISSMEAEDAATYYCQQWNSNPYTFGGGTKLEMKR
notes: as for B3

Further lines, the binder ahead of its results:

B1: chimeric 3D12.E3 antibody (antibody, V domains shown)
VH: QIQLVQSGPELKKPGETVKISCKASGYTFRNYGMNWVKQAPGKDLKRMAWINTYTGESTYADDFKGRFAFSLETSASTAYLQINNLKNEDTATYFCARGIYYYGSSYAMDYWGQGTSVTVSS
VL: NIQMTQTTSSLSASLGDRVTISCRASQDISNCLNWYQQKPDGTVKLLIYYTSRLHSGVPSRFSGSGSGTDYSLTISNLEQEDIATYFCQQGKTLPYAFGGGTKLEINR
notes: Murine variable domains on human Cγ1 and human Cκ constant regions (3D12.E3-VH-hCγ1, 3D12.E3-VL-hCκ); also called 3D12.E3-Ch; 3D12.E3 chimeric Ab
Potency (IC50) M, MRC-5 bioassay [1]: 0.7 nM | Stoichiometry [2]: 1.6 | Kd [3]: 1.34 nM | koff [3]: 0.000552 s⁻¹ | kon [3]: 412000 M⁻¹ s⁻¹

B2: chimeric 13F5.G5 antibody (antibody, V domains shown)
VH: QVQLQQSGAELVRPGSSVKISCKASGYAFSSYWMNWVKQRPGQGLEWIGQIYPGDGDTNYNGKFKGKATLTADKSSSTSYMQLSGLTSEDSAMYFCVRFPTGNDYYAMDYWGQGTSVTVSS
VL: NIVLTQSPASLAVSLGQRATISCRASESVDSYGNSYMHWYQQKPGQPPKLLIYLASNLESGVPARFSGSGSRTDFTLTIDPVEADDAATYYCQQNNEDPFTFGSGTKLEIKR
notes: Murine variable domains on human Cγ1 and human Cκ constant regions (13F5.G5-VH-Cγ1, 13F5.G5-VL-Cκ); also called 13F5.G5-Ch; 13F5.G5 chimeric Ab
Potency (IC50) M, MRC-5 bioassay [4]: 0.53 nM | Stoichiometry [5]: 1.7 | Kd [6]: 0.462 nM | koff [6]: 0.000654 s⁻¹ | kon [6]: 1.41e+06 M⁻¹ s⁻¹

B4: mIL-1α/β DVD-Ig binding protein (bispecific antibody, mouse IgG2a, kappa)
heavy: EVQLQQSGPELVKPGTSVKMSCKTSGYTFTSYVMHWVKQKPGQGLEWIGYIIPYNDNTKYNEKFKGKATLTSDKSSSTAYMELSSLTSEDSAVYYCARRNEYYGSSFFDYWGQGTTLTVSSAKTTAPSVYPLAPQVILKESGPGILQPSQTLSLTCSFSGFSLSTYGTAVNWIRQPSGKGLEWLAQIGSDDRKLYNPFLKSRITLSEDTSNSQVFLKITSVDTEDSATYYCANGVMEYWGLGTSVTVSSAKTTAPSVYPLAPVCGDTTGSSVTLGCLVKGYFPEPVTLTWNSGSLSSGVHTFPAVLQSDLYTLSSSVTVTSSTWPSQSITCNVAHPASSTKVDKKIEPRGPTIKPCPPCKCPAPNLLGGPSVFIFPPKIKDVLMISLSPIVTCVVVDVSEDDPDVQISWFVNNVEVHTAQTQTHREDYNSTLRVVSALPIQHQDWMSGKEFKCKVNNKDLPAPIERTISKPKGSVRAPQVYVLPPPEEEMTKKQVTLTCMVTDFMPEDIYVEWTNNGKTELNYKNTEPVLDSDGSYFMYSKLRVEKKNWVERNSYSCSVVHEGLHNHHTTKSFSRTPGK
light: DIQMTQSPASLSASVGETVTITCRGSGILHNYLVWYQQKQGKSPQLLVYSAKILADGVPSRFSGSGSGTQYSLKINSLQPEDFGSYYCQHFWSTPFTFGSGTKLEIKRADAAPTVSIFPPSIVMTQTPKFLLVSAGDRVTITCKASQSVNHDVAWYQQMPGQSPKLLIYFASNRYTGVPDRFTGSGYGTDFTFTISTVQAEDLAVYFCQQDYSSPYTFGGGTKLEIKRADAAPTVSIFPPSSEQLTSGGASVVCFLNNFYPKDINVKWKIDGSERQNGVLNSWTDQDSKDSTYSMSSTLTLTKDEYERHNSYTCEATHKTSTSPIVKSFNRNEC
notes: V(anti-mIL-1β 10G11)-linker-V(anti-mIL-1α 9H10)-murine constant region (Cγ2a and Cκ); also called mDVD4-Ig; murine IL-1α/β DVD4-Ig
IC50 (M), in vitro potency [11]: 8e-10 M | IC50 (M), in vitro potency [12]: 2e-09 M | Kd [13]: 0.694 nM | Kd [14]: 0.766 nM

B7: mouse anti-mouse IL-1α monoclonal antibody 9H10 (antibody, V domains shown)
VH: QVILKESGPGILQPSQTLSLTCSFSGFSLSTYGTAVNWIRQPSGKGLEWLAQIGSDDRKLYNPFLKSRITLSEDTSNSQVFLKITSVDTEDSATYYCANGVMEYWGLGTSVTVSS
VL: SIVMTQTPKFLLVSAGDRVTITCKASQSVNHDVAWYQQMPGQSPKLLIYFASNRYTGVPDRFTGSGYGTDFTFTISTVQAEDLAVYFCQQDYSSPYTFGGGTKLEIKR
notes: Mouse mAb from IL-1αβ double KO mice; also called anti-IL-1α (9H10)
IC50 (M), in vitro potency [12]: 2e-10 M | Kd [14]: 0.173 nM

Reference: patent US20120201781A1 (AbbVie / Abbott, published 2012)
